Patent publication US20090123572

How the values were obtained:
[1] = biological target: T1, recombinant squamous cell carcinoma antigen 1 (SCCA-1), P29508
T1 chain: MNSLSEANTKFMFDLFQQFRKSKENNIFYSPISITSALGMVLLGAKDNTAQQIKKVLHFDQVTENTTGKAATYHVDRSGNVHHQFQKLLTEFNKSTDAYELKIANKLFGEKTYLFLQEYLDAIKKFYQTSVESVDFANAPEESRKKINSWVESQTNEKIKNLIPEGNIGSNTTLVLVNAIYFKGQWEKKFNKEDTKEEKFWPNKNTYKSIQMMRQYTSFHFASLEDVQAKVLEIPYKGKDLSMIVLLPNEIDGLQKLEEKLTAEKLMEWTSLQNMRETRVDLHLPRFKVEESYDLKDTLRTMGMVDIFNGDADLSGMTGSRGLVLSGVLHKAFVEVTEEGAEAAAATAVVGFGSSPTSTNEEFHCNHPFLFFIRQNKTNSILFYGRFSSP

[2] = biological target: T2, recombinant ICAD protein, O00273
T2 chain: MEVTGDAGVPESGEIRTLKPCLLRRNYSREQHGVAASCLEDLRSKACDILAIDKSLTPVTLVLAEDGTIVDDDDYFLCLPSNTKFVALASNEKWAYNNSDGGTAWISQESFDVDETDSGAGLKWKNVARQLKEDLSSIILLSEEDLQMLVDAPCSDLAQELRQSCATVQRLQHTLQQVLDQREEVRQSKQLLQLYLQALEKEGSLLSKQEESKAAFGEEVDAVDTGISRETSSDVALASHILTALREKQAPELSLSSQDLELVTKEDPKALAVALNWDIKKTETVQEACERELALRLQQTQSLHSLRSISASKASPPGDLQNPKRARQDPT

B1: recombinant caspase-5 (protein)
chain: DQKITSVKPLLQIEAGPPESAESTNILKLCPREEFLRLCKKNHDEIYPIKKREDRRRLALIICNTKFDHLPARNGAHYDIVGMKRLLQGLGYTVVDEKNLTARDMESVLRAFAARPEHKSSDSTFLVLMSHGILEGICGTAHKKKKPDVLLYDTIFQIFNNRNCLSLKDKPKVIIVQACRGEKHGELWVRDSPASLALISSQSSENLEADSVCKIHEEKDFIAFCSSTPHNVSWRDRTRGSIFITELITCFQKYSCCCHLMEIFRKVQKSFEVPQAKAQMPTIERATLTRDFYLFPGN
With B1 the “enzyme activity of recombinant caspase incubated with SCCA-1 (synthetic caspase substrates)” value (“enzyme activity” below) [1] was “None of the caspase members (1 to 10) were affected with respect to enzyme activity when recombinant caspase was incubated with SCCA-1”.

B2: purified caspase-14 from human cornified cells (heterodimer of 17 KDa large subunit and 11 KDa small subunit) (protein)
chain 1: SLEEEKYDMSGARLALILCVTKAREGSEEDLDALEHMFRQLRFESTMKRDPTAEQFQEELEKFQQAIDSREDPVSCAFVVLMAHGREGFLKGEDGEMVKLENLFEALNNKNCQALRAKPKVYIIQACRGEQRDPGETVGGD
chain 2: KDSPQTIPTYTDALHVYSTVEGYIAYRHDQKGSCFIQTLVDVFTKRKGHILELLTEVTRRMAEAELVQEGKARKTNPEIQSTLRKRLYLQ
B2 was tested, and the “ICAD cleavage products (Western blot with FL331 antibody)” value [2] was “Cleavage products were observed at 33 and 27 KDa”, the “decomposition of recombinant ICAD in the presence of kosmotropic salt (Western blot with anti-ICAD IgG)” value [2] was “since the amount of intact ICAD protein decreases and two major decomposition products increase in the presence of kosmotropic salt, purified caspase-14 demonstrated limited decomposing action on ICAD” and the “fragments formed from ICAD; sequence analysis of the cleavage sites” value [2] was “caspase-14 formed fragments resembling 12 KDa and 35 KDa from ICAD. Sequence analysis indicated identical cleavage sites”. For the same protein, the “hydrolysis of recombinant ICAD in an ordinary caspase assay buffer (Western blot with anti-ICAD IgG)” value [2] was “purified caspase-14 did not demonstrate any hydrolysis activity on ICAD”.

B3: recombinant caspase-4 (protein)
chain: QISPNKKAHPNMEAGPPESGESTDALKLCPHEEFLRLCKERAEEIYPIKERNNRTRLALIICNTEFDHLPPRNGADFDITGMKELLEGLDYSVDVEENLTARDMESALRAFATRPEHKSSDSTFLVLMSHGILEGICGTVHDEKKPDVLLYDTIFQIFNNRNCLSLKDKPKVIIVQACRGANRGELWVRDSPASLEVASSQSSENLEEDAVYKTHVEKDFIAFCSSTPHNVSWRDSTMGSIFITQLITCFQKYSWCCHLEEVFRKVQQSFETPRAKAQMPTIERLSMTRYFYLFPGN
With B3 the “enzyme activity” value [1] was “None of the caspase members (1 to 10) were affected with respect to enzyme activity when recombinant caspase was incubated with SCCA-1”.

B4: recombinant caspase-8 (protein)
chain: SESQTLDKVYQMKSKPRGYCLIINNHNFAKAREKVPKLHSIRDRNGTHLDAGALTTTFEELHFEIKPHDDCTVEQIYEILKIYQLMDHSNMDCFICCILSHGDKGIIYGTDGQEAPIYELTSQFTGLKCPSLAGKPKVFFIQACQGDNYQKGIPVETDSEEQPYLEMDLSSPQTRYIPDEADFLLGMATVNNCVSYRNPAEGTWYIQSLCQSLRERCPRGDDILTILTEVNYEVSNKDDKKNMGKQMPQPTFTLRKKLVFPSD
With B4 the “enzyme activity” value [1] was “None of the caspase members (1 to 10) were affected with respect to enzyme activity when recombinant caspase was incubated with SCCA-1”.

B5: recombinant caspase-2 (protein)
chain: GPVCLQVKPCTPEFYQTHFQLAYRLQSRPRGLALVLSNVHFTGEKELEFRSGGDVDHSTLVTLFKLLGYDVHVLCDQTAQEMQEKLQNFAQLPAHRVTDSCIVALLSHGVEGAIYGVDGKLLQLQEVFQLFDNANCPSLQNKPKMFFIQACRGDETDRGVDQQDGKNHAGSPGCEESDAGKEKLPKMRLPTRSDMICGYACLKGTAAMRNTKRGSWYIEALAQVFSERACDMHVADMLVKVNALIKDREGYAPGTEFHRCKEMSEYCSTLCRHLYLFPGHPPT
In the case of B5, the “enzyme activity” value [1] is reported as “None of the caspase members (1 to 10) were affected with respect to enzyme activity when recombinant caspase was incubated with SCCA-1”.

B6: recombinant caspase-9 (protein)
chain: GALESLRGNADLAYILSMEPCGHCLIINNVNFCRESGLRTRTGSNIDCEKLRRRFSSLHFMVEVKGDLTAKKMVLALLELAQQDHGALDCCVVVILSHGCQASHLQFPGAVYGTDGCPVSVEKIVNIFNGTSCPSLGGKPKLFFIQACGGEQKDHGFEVASTSPEDESPGSNPEPDATPFQEGLRTFDQLDAISSLPTPSDIFVSYSTFPGFVSWRDPKSGSWYVETLDDIFEQWAHSEDLQSLLLRVANAVSVKGIYKQMPGCFNFLRKKLFFKTS
For B6, the “enzyme activity” value [1] was “None of the caspase members (1 to 10) were affected with respect to enzyme activity when recombinant caspase was incubated with SCCA-1”.

B7: recombinant caspase-7 (protein)
chain: AKPDRSSFVPSLFSKKKKNVTMRSIKTTRDRVPTYQYNMNFEKLGKCIIINNKNFDKVTGMGVRNGTDKDAEALFKCFRSLGFDVIVYNDCSCAKMQDLLKKASEEDHTNAACFACILLSHGEENVIYGKDGVTPIKDLTAHFRGDRCKTLLEKPKLFFIQACRGTELDDGIQADSGPINDTDANPRYKIPVEADFLFAYSTVPGYYSWRSPGRGSWFVQALCSILEEHGKDLEIMQILTRVNDRVARHFESQSDDPHFHEKKQIPCVVSMLTKELYFSQ
B7 was tested, and the “enzyme activity” value [1] was “None of the caspase members (1 to 10) were affected with respect to enzyme activity when recombinant caspase was incubated with SCCA-1”.

B8: recombinant caspase-6 (protein)
chain: AFYKREMFDPAEKYKMDHRRRGIALIFNHERFFWHLTLPERRGTCADRDNLTRRFSDLGFEVKCFNDLKAEELLLKIHEVSTVSHADADCFVCVFLSHGEGNHIYAYDAKIEIQTLTGLFKGDKCHSLVGKPKIFIIQACRGNQHDVPVIPLDVVDNQTEKLDTNITEVDAASVYTLPAGADFLMCYSVAEGYYSHRETVNGSWYIQDLCEMLGKYGSSLEFTELLTLVNRKVSQRRVDFCKDPSAIGKKQVPCFASMLTKKLHFFPKSN
B8 was tested, and the “enzyme activity” value [1] was “None of the caspase members (1 to 10) were affected with respect to enzyme activity when recombinant caspase was incubated with SCCA-1”.

B9: recombinant caspase-1 (protein)
chain: NPAMPTSSGSEGNVKLCSLEEAQRIWKQKSAEIYPIMDKSSRTRLALIICNEEFDSIPRRTGAEVDITGMTMLLQNLGYSVDVKKNLTASDMTTELEAFAHRPEHKTSDSTFLVFMSHGIREGICGKKHSEQVPDILQLNAIFNMLNTKNCPSLKDKPKVIIIQACRGDSPGVVWFKDSVGVSGNLSLPTTEEFEDDAIKKAHIEKDFIAFCSSTPDNVSWRHPTMGSVFIGRLIEHMQEYACSCDVEEIFRKVRFSFEQPDGRAQMPTTERVTLTRCFYLFPGH
In the case of B9, the “enzyme activity” value [1] is reported as “None of the caspase members (1 to 10) were affected with respect to enzyme activity when recombinant caspase was incubated with SCCA-1”.

B10: recombinant caspase-3 (protein)
chain: SGISLDNSYKMDYPEMGLCIIINNKNFHKSTGMTSRSGTDVDAANLRETFRNLKYEVRNKNDLTREEIVELMRDVSKEDHSKRSSFVCVLLSHGEEGIIFGTNGPVDLKKITNFFRGDRCRSLTGKPKLFIIQACRGTELDCGIETDSGVDDDMACHKIPVEADFLYAYSTAPGYYSWRNSKDGSWFIQSLCAMLKQYADKLEFMHILTRVNRKVATEFESFSFDATFHAKKQIPCIVSMLTKELYFYH
For B10, the “caspase-3 activity on the synthetic substrate DEVD-MCA or the natural substrate ICAD” value [1] was “SCCA-1 did not inhibit caspase-3 activity using the synthetic substrate DEVD-MCA or the natural substrate ICAD” and the “enzyme activity” value [1] was “None of the caspase members (1 to 10) were affected with respect to enzyme activity when recombinant caspase was incubated with SCCA-1”.

B11: recombinant caspase-10 (protein)
chain: VKTFLEALPQESWQNKHAGSNGNRATNGAPSLVSRGMQGASANTLNSETSTKRAAVYRMNRNHRGLCVIVNNHSFTSLKDRQGTHKDAEILSHVFQWLGFTVHIHNNVTKVEMEMVLQKQKCNPAHADGDCFVFCILTHGRFGAVYSSDEALIPIREIMSHFTALQCPRLAEKPKLFFIQACQGEEIQPSVSIEADALNPEQAPTSLQDSIPAEADFLLGLATVPGYVSFRHVEEGSWYIQSLCNHLKKLVPRMLKFLEKTMEIRGRKRTVWGAKQISATSLPTAISAQTPRPPMRRWSSVS
For B11, the “enzyme activity” value [1] was “None of the caspase members (1 to 10) were affected with respect to enzyme activity when recombinant caspase was incubated with SCCA-1”.
